Assays:
[1] = target: tau monoclonal antibody (Example 5, FIG. 5); assay: competitive ELISA
[2] = target: tau monoclonal antibody (Example 5, FIG. 5); assay: competitive ELISA; printed as apparent affinity = antigen concentration for 50% competition with prototype tau type IA

Row | fold decrease in affinity against prototype tau type IA (SEQ ID NO:1) [1] [fold] | IC50 [2] [nM] | Substance
1 | 1000 |  | deletion mutant SEQ ID NO: 21 (268-333,R4;del 239-267) (from UniProt O02828 288-353)
2 |  | 10 | prototype tau type IA (SEQ ID NO:1) (239-333,R4) (from UniProt O02828 259-353)

Reference: US20060167227A1
